Results on six sequences are retold here after the supplement of paper PMC11246515.

The nature of this data set: total protein half-life in vivo (active degradation + dilution); higher = more stable protein.
Setting [1] is: E. coli NCM3722 delta-clpP delta-lon delta-hslV, growth: N-lim chemostat, doubling time 6 h.
Where [2] appears, read: E. coli NCM3722 delta-clpP, growth: N-lim chemostat, doubling time 6 h.
Setting [3] is: E. coli NCM3722 delta-hslV, growth: N-lim chemostat, doubling time 6 h.
The mark [4] stands for this setting: E. coli NCM3722 delta-lon, growth: N-lim chemostat, doubling time 6 h.
[5] abbreviates: E. coli NCM3722 delta-smpB, growth: N-lim chemostat, doubling time 6 h.
[6] abbreviates: wild type E. coli NCM3722, growth: C-lim chemostat, doubling time 3 h.
Setting [7] is: wild type E. coli NCM3722, growth: C-lim chemostat, doubling time 6 h.
Setting [8] is: wild type E. coli NCM3722, growth: C-lim chemostat, doubling time 12 h.
Where [9] appears, read: wild type E. coli NCM3722, growth: N-lim chemostat, doubling time 6 h.
The mark [10] stands for this setting: wild type E. coli NCM3722, growth: N-lim chemostat, doubling time 12 h.
[11] abbreviates: wild type E. coli NCM3722, growth: P-lim chemostat, doubling time 6 h.
[12] abbreviates: wild type E. coli NCM3722, growth: P-lim chemostat, doubling time 12 h.

± gives the standard deviation of the averaged measurements.

On to “MKNSKAILQVPGTMKIISAEIPVPKEDEVLIKVEYVGICGSDVHGFESGPFIPPKDPNQEIGLGHECAGTVVAVGSRVRKFKPGDRVNIEPGVPCGHCRYCLEGKYNICPDVDFMATQPNYRGALTHYLCHPESFTYKLPDNMDTMEGALVEPAAVGMHAAMLADVKPGKKIIILGAGCIGLMTLQACKCLGATEIAVVDVLEKRLAMAEQLGATVVINGAKEDTIARCQQFTEDMGADIVFETAGSAVTVKQAPYLVMRGGKIMIVGTVPGDSAINFLKINREVTIQTVFRYANRYPVTIEAISSGRFDVKSMVTHIYDYRDVQQAFEESVNNKRDIIKGVIKISD”, for which the “total protein half-life in vivo” value by setting is: under setting [1], 4.54 h; under setting [2], 4.02 h; under setting [3], 2.93 h; under setting [4], 3.28 h; under setting [5], 3.59 ± 0.58 h; under setting [6], 2.63 ± 0.11 h. The “total protein half-life in vivo” value under setting [7] turned out to be 4.65 ± 0.57 h; the “total protein half-life in vivo” value under setting [8] came out at 8.14 ± 1.7 h; the “total protein half-life in vivo” value under setting [9] is 3.39 ± 0.43 h; the “total protein half-life in vivo” value under setting [10] came to 5.18 ± 0.57 h; the “total protein half-life in vivo” value under setting [11] is 4.95 ± 0.44 h; the “total protein half-life in vivo” value under setting [12] worked out at 9.79 ± 0.17 h.

Take “MAIKKRSATVVPGASGAAAAVKNPQASKTSFWGELPQHVMSGISRMVPTLIMGGVILAFSQLIAYSWLKIPAEIGIMDALNSGKFSGFDLSLLKFAWLSQSFGGVLFGFAIPMFAAFVANSIGGKLAFPAGFIGGLMSTQPTQLLNFDPSTMQWATSSPVPSTFIGALIISIVAGYLVKWMNQKIQLPDFLLAFKTTFLLPILSAIFVMLAMYYVITPFGGWINGGIRTVLTAAGEKGALMYAMGIAAATAIDLGGPINKAAGFVAFSFTTDHVLPVTARSIAIVIPPIGLGLATIIDRRLTGKRLFNAQLYPQGKTAMFLAFMGISEGAIPFALESPITAIPSYMVGAIVGSTAAVWLGAVQWFPESAIWAWPLVTNLGVYMAGIALGAVITALMVVFLRLMMFRKGKLLIDSL”: the “total protein half-life in vivo” value worked out at 2.72 h under setting [6], 4.59 ± 0.42 h under setting [7] and 6.4 h under setting [8].

As to “MTTRVIALDLDGTLLTPKKTLLPSSIEALARAREAGYQLIIVTGRHHVAIHPFYQALALDTPAICCNGTYLYDYHAKTVLEADPMPVIKALQLIEMLNEHHIHGLMYVDDAMVYEHPTGHVIRTSNWAQTLPPEQRPTFTQVASLAETAQQVNAVWKFALTHDDLPQLQHFGKHVEHELGLECEWSWHDQVDIARGGNSKGKRLTKWVEAQGWSMENVVAFGDNFNDISMLEAAGTGVAMGNADDAVKARANIVIGDNTTDSIAQFIYSHLI”, the “total protein half-life in vivo” value by setting is: under setting [1], 5.16 ± 0.18 h; under setting [2], 0.903 ± 0.047 h; under setting [3], 0.971 ± 0.12 h; under setting [4], 1.19 ± 0.11 h; under setting [5], 1.09 ± 0.013 h; under setting [6], 2.05 ± 0.096 h. The “total protein half-life in vivo” value is, setting by setting: under setting [7], 3.48 ± 1.5 h; under setting [8], 3.08 ± 0.64 h; under setting [9], 1.05 ± 0.02 h; under setting [10], 1.52 ± 0.12 h; under setting [11], 3 ± 0.29 h; under setting [12], 4.84 ± 0.26 h.

As for “MQTKKNEIWVGIFLLAALLAALFVCLKAANVTSIRTEPTYTLYATFDNIGGLKARSPVSIGGVVVGRVADITLDPKTYLPRVTLEIEQRYNHIPDTSSLSIRTSGLLGEQYLALNVGFEDPELGTAILKDGDTIQDTKSAMVLEDLIGQFLYGSKGDDNKNSGDAPAAAPGNNETTEPVGTTK”, the “total protein half-life in vivo” value under setting [1] was found to be 6.04 ± 0.2 h; the “total protein half-life in vivo” value under setting [2] is 6.2952 ± 0.0017 h; the “total protein half-life in vivo” value under setting [3] came to 5.73 ± 1.1 h; the “total protein half-life in vivo” value under setting [4] turned out to be 6.27 ± 0.51 h; the “total protein half-life in vivo” value under setting [5] came out at 6.07 ± 0.14 h; the “total protein half-life in vivo” value under setting [7] worked out at 5.612 ± 0.038 h. In addition, the “total protein half-life in vivo” value worked out at 12.5 ± 1.4 h under setting [8]; 6.08 ± 0.09 h under setting [9]; 13.6 ± 1.8 h under setting [10]; 5.72 ± 0.45 h under setting [11]; 13.7 ± 0.79 h under setting [12].

On to “MSTLEPAAQSKPPGGFKLWLSQLQMKHGRKLVIALPYIWLILLFLLPFLIVFKISLAEMARAIPPYTELMEWADGQLSITLNLGNFLQLTDDPLYFDAYLQSLQVAAISTFCCLLIGYPLAWAVAHSKPSTRNILLLLVILPSWTSFLIRVYAWMGILKNNGVLNNFLLWLGVIDQPLTILHTNLAVYIGIVYAYVPFMVLPIYTALIRIDYSLVEAALDLGARPLKTFFTVIVPLTKGGIIAGSMLVFIPAVGEFVIPELLGGPDSIMIGRVLWQEFFNNRDWPVASAVAIIMLLLLIVPIMWFHKHQQKSVGEHG”, for which the “total protein half-life in vivo” value under setting [1] was 6.86 h; the “total protein half-life in vivo” value under setting [2] was determined as 4.75 ± 1.4 h; the “total protein half-life in vivo” value under setting [5] was 5 h; the “total protein half-life in vivo” value under setting [7] stood at 5.16 ± 0.14 h; the “total protein half-life in vivo” value under setting [8] was 12 ± 1.7 h; the “total protein half-life in vivo” value under setting [9] was 5.38 h. For the same sequence, the “total protein half-life in vivo” value came out at 10.6 ± 0.24 h under setting [10], 6.7 h under setting [11] and 13.2 ± 1.9 h under setting [12].

Take “MWDVIDLSRWQFALTALYHFLFVPLTLGLIFLLAIMETIYVVTGKTIYRDMTRFWGKLFGINFALGVATGLTMEFQFGTNWSFYSNYVGDIFGAPLAMEALMAFFLESTFVGLFFFGWQRLNKYQHLLVTWLVAFGSNLSALWILNANGWMQYPTGAHFDIDTLRMEMTSFSELVFNPVSQVKFVHTVMAGYVTGAMFIMAISAWYLLRGRERNVALRSFAIGSVFGTLAIIGTLQLGDSSAYEVAQVQPVKLAAMEGEWQTEPAPAPFHVVAWPEQDQERNAFALKIPALLGILATHSLDKPVPGLKNLMAETYPRLQRGRMAWLLMQEISQGNREPHVLQAFRGLEGDLGYGMLLSRYAPDMNHVTAAQYQAAMRGAIPQVAPVFWSFRIMVGCGSLLLLVMLIALVQTLRGKIDQHRWVLKMALWSLPLPWIAIEAGWFMTEFGRQPWAIQDILPTYSAHSALTTGQLAFSLIMIVGLYTLFLIAEVYLMQKYARLGPSAMQSEQPTQQQG”: the “total protein half-life in vivo” value under setting [1] is 3.4 h; the “total protein half-life in vivo” value under setting [3] came out at 4.58 ± 0.54 h; the “total protein half-life in vivo” value under setting [4] is 1.46 h; the “total protein half-life in vivo” value under setting [5] was 1.93 h; the “total protein half-life in vivo” value under setting [9] is 5.27 ± 0.94 h; the “total protein half-life in vivo” value under setting [10] turned out to be 14.6 h. Besides, the “total protein half-life in vivo” value runs as follows: under setting [11], 0.869 h; under setting [12], 2.11 h.
